Measured values: patent US20230052680A1

Molecular target: human FGFR2b (beta)-Fc (human) (UniProt P21802)
Experiment: surface plasmon resonance (Biacore T200), hFGFR2b-Fc amine-coupled to a CM5 chip, antibody injected

Kd: 0.75 nM
koff: 7.77e-05 s⁻¹
kon: 104000 M⁻¹ s⁻¹
Substance: FPA144 (antibody)
